According to patent publication US20230364000A1, “COMPOSITIONS COMPRISING COMBINATIONS OF COLLAGEN OR ELASTIN POLYPEPTIDES WITH ACTIVE INGREDIENTS AND METHODS OF USING SAME” (Geltor, Inc., priority 2020, published 2023):

Tests used:
[1] = tested on: Human full-thickness skin equivalents (MatTek Epiderm FT co-culture tissue models); test: Type I collagen production in human full-thickness skin equivalents (pro-collagen type I C-peptide ELISA); type: cell-based; settings: polypeptide 0.1% w/w, FIG. 18; for production of type I collagen as compared to untreated cells: each agent alone, day 4, retinol (10, unit not given), ascorbic acid 2% w/w, hyaluronic acid 0.1% w/w
Method: Human full-thickness skin equivalents (MatTek Epiderm FT co-culture tissue models) which contain keratinocytes and fibroblasts were treated with a 0.1% w/w truncated human type 21 collagen polypeptide (having an amino acid sequence of SEQ ID NO: 16) (“C21”; FIG. […] Culture medium was changed every 2 days. On day 4, supernatant was collected and analyzed by enzyme-linked immunosorbent assay (ELISA) for pro-collagen type I C-peptide, which is a readout for total secreted collagen type I protein.

[2] = tested on: Human full-thickness skin equivalents (MatTek Epiderm FT co-culture tissue models); test: Elastin production in human full-thickness skin equivalents (ELISA); type: cell-based; settings: polypeptide 0.1% w/w, retinol (10, unit not given), ascorbic acid 2% w/w, FIG. 20; for production of elastin as compared to untreated cells: each agent alone, day 2, hyaluronic acid 0.1% w/w; for increase of elastin production relative to untreated control: day 2 supernatant
Description: The combination of the truncated human type 21 collagen polypeptide with retinol increased elastin production by 45% relative to untreated control. This appeared to be a synergistic effect as treatment with truncated human type 21 collagen polypeptide alone increased elastin production by 20% and treatment with retinol alone increased elastin production by 17%. The combination of the truncated human type 21 collagen polypeptide with ascorbic acid increased elastin production by 33% relative to untreated control. This appeared to be a synergistic effect as treatment with truncated human type 21 collagen polypeptide alone increased elastin production by 20% and treatment with ascorbic acid alone increased elastin production by 5%.

[3] = tested on: Human full-thickness skin equivalents (MatTek Epiderm FT co-culture tissue models); test: Fibronectin production in human full-thickness skin equivalents (ELISA); type: cell-based; settings: polypeptide 0.1% w/w, FIG. 19; for production of fibronectin as compared to untreated cells: each agent alone, day 4, retinol (10, unit not given), ascorbic acid 2% w/w, hyaluronic acid 0.1% w/w
[4] = tested on: Human full-thickness skin equivalents (MatTek Epiderm FT co-culture tissue models); test: Type III collagen production in human full-thickness skin equivalents (pro-collagen type III N-peptide ELISA); type: cell-based; settings: polypeptide 0.1% w/w, ascorbic acid 2% w/w, FIG. 21; for production of type III collagen as compared to untreated cells: each agent alone, day 2, retinol (10, unit not given), hyaluronic acid 0.1% w/w
[5] = tested on: human primary fibroblasts; test: Fibroblast collagen type I protein secretion with truncated elastin (pro-collagen type I C-peptide ELISA); type: cell-based; settings: 48 hours, compared with untreated control fibroblasts, FIG. 24
Method: Fibroblasts are the main source of the extracellular matrix peptides, including the structural proteins collagen and elastin. Human primary fibroblasts were evaluated for collagen type I protein secretion. Fibroblasts were cultured with a polypeptide according to SEQ ID NO: 52 for 48 hours. The culture supernatants were analyzed by ELISA for pro-collagen type I C-peptide, a readout for total secreted collagen type I protein.

Keratinocytes = test: Clariom microarray global gene expression in keratinocytes; type: cell-based; settings: 0.03% w/w solution, 24 hours, relative to untreated cells
Method: Keratinocytes were incubated for 24 hours with media alone or with 0.03% w/w solution of a polypeptide according to SEQ ID NO: 52. RNA was extracted from the cells and analyzed by Clariom microarray (ThermoFisher) for global gene expression.
Keratinocytes were incubated for 24 hours with media alone (untreated) or with 0.03% w/w solution of a polypeptide according to SEQ ID NO: 52. RNA was extracted from the cells and analyzed by Clariom microarray (ThermoFisher) for global gene expression.

[6] = Oxygen radical absorbance capacity (ORAC) assay, cell-free; type: biochemical; settings: for anti-oxidative capacity (ORAC): FIG. 25
Method: The antioxidant potential of a polypeptide of SEQ ID NO: 16 was assessed using the oxygen free radical absorbance capacity (ORAC) assay. The ORAC assay is a cell-free assay that uses a fluorescent readout to measure a product's antioxidant capacity. Data is reported in Trolox (Vitamin E) equivalents.
A polypeptide of SEQ ID NO: 5 was also evaluated in the ORAC assay.
An oxygen radical absorbance capacity (ORAC) assay was performed to analyze the anti-oxidative capacity of a polypeptide according to SEQ ID NO: 52. The ORAC assay is a cell-free assay that uses a fluorescent readout to measure anti-oxidative capacity. Data is reported in Trolox (Vitamin E) equivalents (TEs).

[7] = tested on: Human primary fibroblast cultures; test: Fibroblast elastin production (ELISA kit); type: cell-based; settings: 0.03% w/w solution; 24 hours; compared to media alone; FIG. 28
Method: Human primary fibroblast cultures were treated for 24 hours with media alone (untreated) or with 0.03% w/w solution of a polypeptide having an amino acid sequence according to SEQ ID NO: 52. Supernatants were collected and evaluated for elastin production using an ELISA kit.

[8] = tested on: in vitro full thickness human skin tissue model (MatTek); test: Collagen type I secretion by full thickness human skin tissue model (pro-collagen type I C-peptide ELISA); type: cell-based; settings: treatment 48 hours, fresh media another 48 hours (96 hour timepoint); compared with untreated tissue models or positive control Vitamin B3; FIG. 10
Method: A series of in vitro experiments were conducted to assess the effects of a truncated jellyfish collagen on human skin fibroblasts and keratinocytes. An in vitro full thickness human skin tissue model (MatTek) which contains fibroblasts and keratinocytes was evaluated for collagen type I secretion after treatment with a polypeptide of SEQ ID NO: 5 for 48 hours. The tissue models were then rinsed and incubated with fresh media for another 48 hours (96 hour timepoint). The culture supernatants were analyzed by ELISA for pro-collagen type I C-peptide (a readout for total secreted collagen type I protein).

[9] = tested on: human primary keratinocytes; test: MTT viability of keratinocytes exposed to urban dust; type: cell-based; settings: pre-treated with 0.03% for 24 hours, then 2 mg/ml urban dust (NIST 1649B) for 24 hours; compared with untreated exposed keratinocytes; FIG. 13
Method: To test for protection from urban dust, human primary keratinocytes were pre-treated with 0.03% of a polypeptide of SEQ ID NO: 5 for 24 hours, and then exposed to 2 mg/ml urban dust (NIST 1649B) for 24 hours. Cell viability was evaluated using the MTT metabolic colorimetric assay.

[10] = tested on: human primary keratinocytes; test: Thymine dimers in UVB-irradiated keratinocytes (OxiSelect UV-Induced DNA Damage ELISA); type: cell-based; settings: 25 mJ/cm^2 UVB, then overnight with 0.03%; compared with untreated cells; FIG. 11
Method: In a further study, human primary keratinocytes were irradiated with 25 mJ/cm^2 UVB light, then incubated overnight in media with 0.03% of a polypeptide of SEQ ID NO: 5. DNA was extracted from the cells and analyzed for levels of thymine dimers (an indicator of DNA damage) using an OxiSelect UV-Induced DNA Damage ELISA kit.

facial skin [11] = test: Cutometer facial skin elasticity, clinical study of Example 7; type: in vivo, human; settings: topical facial cream 0.05%, n=18, FIG. 17
Description: (§1) In a clinical study (n=18 subjects), subjects used a topical facial cream containing 0.05% of a polypeptide of SEQ ID NO: 5 for 2 weeks.

facial skin [12] = test: Facial skin hydration, clinical study of Example 7; type: in vivo, human; settings: topical facial cream 0.05%, n=18, FIG. 16
Description: as §1

[13] = tested on: human primary keratinocytes; test: MTT viability of UVB-irradiated keratinocytes, post-irradiation treatment; type: cell-based; settings: 40 mJ/cm^2 UVB, then 48 hours with 0.03%; compared with untreated UVB-irradiated keratinocytes; FIG. 12
Method: Human primary keratinocytes were irradiated with 40 mJ/cm^2 UVB light, then incubated for 48 hours in media with 0.03% of a polypeptide of SEQ ID NO: 5. Cell viability was evaluated using the MTT metabolic colorimetric assay.

[14] = tested on: in vitro full thickness human skin tissue model (MatTek); test: IL-la ELISA in UVB-irradiated full thickness human skin tissue model; type: cell-based; settings: 300 mJ/cm^2 UVB, then 0.01% for 24 hours; compared to untreated UVB-irradiated control; FIG. 14
Method: In a further study with the in vitro full thickness human skin tissue model (MatTek), the MatTek tissue models were irradiated with 300 mJ/cm^2 UVB light, then treated with 0.01% of a polypeptide of SEQ ID NO: 5 for 24 hours. Levels of pro-inflammatory cytokine IL-la was determined by ELISA.

[15] = day 4 supernatant, hyaluronic acid 0.1% w/w (low molecular weight, 15-40 kDa)

hyaluronic acid
increase of type I collagen production relative to the untreated control [1, 15]: 72% | production of type I collagen as compared to untreated cells [1]: increased production | production of elastin as compared to untreated cells [2]: increased production | increase of fibronectin production relative to untreated control [3, 15]: 30% | production of fibronectin as compared to untreated cells [3]: increased production | production of type III collagen as compared to untreated cells [4]: increased production

O=C1O[C@H]([C@@H](O)CO)C(O)=C1O [ascorbic acid]
production of type I collagen as compared to untreated cells [1]: increased production | increase of elastin production relative to untreated control [2]: 5% | production of elastin as compared to untreated cells [2]: increased production | production of fibronectin as compared to untreated cells [3]: increased production | increase of type III collagen production relative to untreated control ([4]; day 2 supernatant): 80% | production of type III collagen as compared to untreated cells [4]: increased production

CC1=C(/C=C/C(C)=C/C=C/C(C)=C/CO)C(C)(C)CCC1 [retinol]
production of type I collagen as compared to untreated cells [1]: increased production | increase of elastin production relative to untreated control [2]: 17% | production of elastin as compared to untreated cells [2]: increased production | production of fibronectin as compared to untreated cells [3]: increased production | production of type III collagen as compared to untreated cells [4]: increased production

B1: SEQ ID NO: 52: 13 kDa non-naturally occurring truncated human elastin without the DsbA secretion tag (protein)
chain: AGLGGVPGVGGLGVSAGAVVPQPGAGVKPGKVPGVGLPGVYPGGVLPGARFPGVGVLPGVPTGAGVKPKAPGVGGAFAGIPGVGPFGGPQPGVPLGYPIKAPKLPGGYGLPYTTGKLPYGYGPGGVAGAAGKAGYPTGTGVGPQ
secreted collagen type I (pro-collagen type I C-peptide) ([5]; 0.025% w/w solution): higher levels | secreted collagen type I (pro-collagen type I C-peptide) ([5]; 0.05% w/w solution): higher levels | secreted collagen type I (pro-collagen type I C-peptide) ([5]; 0.1% w/w solution): higher levels | expression of antioxidant genes, including SOD2, GPX2, GPX4, GSTK1, GSTZ1, GSTA4, GSTM2, CCS, GPX1, GLRX, PRDXS, PRDX6, and PRDX2 (Keratinocytes; FIG. 26): upregulated | expression of pro-apoptotic genes, including APAF1, BAK1, CASP7, CASP8, FADD, MCL1, and MET (Keratinocytes; FIG. 27): downregulated | anti-oxidative capacity (ORAC) ([6]; 0.0125% w/w solution): anti-oxidative properties | anti-oxidative capacity (ORAC) ([6]; 0.025% w/w solution): anti-oxidative properties | anti-oxidative capacity (ORAC) ([6]; 0.05% w/w solution): anti-oxidative properties | anti-oxidative capacity (ORAC) ([6]; 0.1% w/w solution): anti-oxidative properties | anti-oxidative properties, Trolox (Vitamin E) equivalents ([6]; 0.2% w/w solution): 228 μM Trolox | anti-oxidative capacity (ORAC) ([6]; 0.2% w/w solution): anti-oxidative properties | production of elastin [7]: increased production

B2: SEQ ID NO: 5: truncated jellyfish collagen without a His tag, linker, and thrombin cleavage site (protein)
chain: GPQGVVGADGKDGTPGNAGQKGPSGEPGSPGKAGSAGEQGPPGKDGSNGEPGSPGKEGERGLAGPPGPDGRRGETGSPGIAGALGKPGLEGPKGYPGLRGRDGTNGKRGEQGETGPDGVRGIPGNDGQSGKPGIDGIDGTNGQPGEAGYQGGRGTRGQLGETGDVGQNGDRGAPGPDGSKGSAGRPGLR
secreted collagen type I (pro-collagen type I C-peptide) [8]: higher levels | cell viability (MTT) after urban dust exposure [9]: higher cell viability | level of thymine dimers (DNA damage) [10]: lower level | antioxidant properties, Trolox (Vitamin E) equivalents ([6]; 0.1% solution): 193 μM Trolox | skin elasticity (cutometer) (facial skin [11]; 1 week vs baseline): increased | skin elasticity (cutometer) (facial skin [11]; 2 weeks vs baseline): increased | skin hydration (facial skin [12]; 1 week vs baseline): increased | skin hydration (facial skin [12]; 2 weeks vs baseline): increased | skin hydration relative to topical application of marine collagen (facial skin [12]; baseline, 1 week and 2 weeks): increased skin hydration | cell viability (MTT) [13]: higher cell viability | levels of IL-la [14]: lower levels
